In publication PMC4882601, “Binding of Human Fibrinogen to MRP Enhances Streptococcus suis Survival in Host Blood in a αXβ2 Integrin-dependent Manner” (Scientific Reports, 2016) one finds Kd and koff data, which are given here for two molecules.

One may read the Kd as the free concentration of one partner at which half of the binding sites on the other are occupied at equilibrium, for simple one-to-one binding. A high value points to a looser complex. By koff is commonly meant a measure of how fast the partners let go of each other.

The target in assay [1] is T1, human fibrinogen (human, UniProt P02671-2 20-644; P02675 31-491; P02679-2 27-437, biotin on hFg (which chain is not told) in the ELISA with immobilised MRP).
T1 construct: Fibrinogen Aα chain, human (63.5 kDa band); Fibrinogen Bβ chain, human (56 kDa band); Fibrinogen γ chain, human (47 kDa band); Three pairs of Aα, Bβ and γ chains; also called hFg; Fg; source: bought: Merck; copies: 2 + 2 + 2
T1 sequence (looked up) 1: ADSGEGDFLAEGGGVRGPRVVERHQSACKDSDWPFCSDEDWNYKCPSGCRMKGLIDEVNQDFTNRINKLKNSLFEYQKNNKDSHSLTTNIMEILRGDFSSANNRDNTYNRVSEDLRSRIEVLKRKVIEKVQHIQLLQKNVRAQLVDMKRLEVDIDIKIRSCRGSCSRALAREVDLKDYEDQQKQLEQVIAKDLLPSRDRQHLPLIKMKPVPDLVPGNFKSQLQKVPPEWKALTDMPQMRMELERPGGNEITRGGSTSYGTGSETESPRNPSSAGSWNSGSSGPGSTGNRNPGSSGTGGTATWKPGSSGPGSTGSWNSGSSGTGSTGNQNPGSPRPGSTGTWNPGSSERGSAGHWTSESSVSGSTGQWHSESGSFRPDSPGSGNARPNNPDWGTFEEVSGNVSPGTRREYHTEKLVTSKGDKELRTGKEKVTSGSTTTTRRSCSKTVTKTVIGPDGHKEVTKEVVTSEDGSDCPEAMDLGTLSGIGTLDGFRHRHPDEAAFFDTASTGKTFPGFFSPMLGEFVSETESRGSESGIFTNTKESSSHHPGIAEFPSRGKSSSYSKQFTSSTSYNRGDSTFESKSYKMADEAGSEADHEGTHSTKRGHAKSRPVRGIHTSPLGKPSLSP
T1 sequence (looked up) 2: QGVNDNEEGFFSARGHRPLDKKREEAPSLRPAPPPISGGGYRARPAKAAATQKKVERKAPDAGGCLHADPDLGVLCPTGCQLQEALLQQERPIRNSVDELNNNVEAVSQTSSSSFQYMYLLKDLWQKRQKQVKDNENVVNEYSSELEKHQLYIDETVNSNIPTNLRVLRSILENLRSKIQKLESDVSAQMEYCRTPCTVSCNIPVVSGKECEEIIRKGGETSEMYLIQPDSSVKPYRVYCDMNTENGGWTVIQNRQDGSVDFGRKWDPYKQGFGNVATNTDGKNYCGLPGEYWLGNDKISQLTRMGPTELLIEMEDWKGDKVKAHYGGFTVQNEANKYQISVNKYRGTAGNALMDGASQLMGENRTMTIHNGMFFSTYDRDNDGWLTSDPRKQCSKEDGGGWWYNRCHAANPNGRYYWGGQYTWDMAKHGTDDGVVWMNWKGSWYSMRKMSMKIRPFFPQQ
T1 sequence (looked up) 3: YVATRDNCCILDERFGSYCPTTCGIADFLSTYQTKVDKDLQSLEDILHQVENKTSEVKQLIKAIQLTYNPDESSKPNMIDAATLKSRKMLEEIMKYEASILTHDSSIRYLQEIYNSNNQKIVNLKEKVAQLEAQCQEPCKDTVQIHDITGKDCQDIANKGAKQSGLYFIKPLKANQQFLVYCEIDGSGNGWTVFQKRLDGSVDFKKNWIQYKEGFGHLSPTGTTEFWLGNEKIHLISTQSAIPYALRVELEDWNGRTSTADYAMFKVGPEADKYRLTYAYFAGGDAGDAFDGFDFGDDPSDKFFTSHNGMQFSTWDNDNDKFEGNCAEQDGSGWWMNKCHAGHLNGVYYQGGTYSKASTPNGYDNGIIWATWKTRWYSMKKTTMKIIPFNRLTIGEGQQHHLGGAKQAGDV
As to the kind of experiment: BLI; biotinylated MRP-N proteins immobilised on streptavidin biosensors, hFg, Fg-D or Fg-E as analyte, PBST, 1:1 binding model. The conditions noted are these: both partners purified. (Biolayer interferometry detects binding as a change in optical thickness at a sensor tip.)

In assay [2] the target is T2, hisMRP-N (a.a. 48-721, the N-terminus of muramidase-released protein) (Streptococcus suis serotype 2 strain …, UniProt P32653 48-721, biotin (in the far-Western and on the BLI biosensors)).
T2 chain: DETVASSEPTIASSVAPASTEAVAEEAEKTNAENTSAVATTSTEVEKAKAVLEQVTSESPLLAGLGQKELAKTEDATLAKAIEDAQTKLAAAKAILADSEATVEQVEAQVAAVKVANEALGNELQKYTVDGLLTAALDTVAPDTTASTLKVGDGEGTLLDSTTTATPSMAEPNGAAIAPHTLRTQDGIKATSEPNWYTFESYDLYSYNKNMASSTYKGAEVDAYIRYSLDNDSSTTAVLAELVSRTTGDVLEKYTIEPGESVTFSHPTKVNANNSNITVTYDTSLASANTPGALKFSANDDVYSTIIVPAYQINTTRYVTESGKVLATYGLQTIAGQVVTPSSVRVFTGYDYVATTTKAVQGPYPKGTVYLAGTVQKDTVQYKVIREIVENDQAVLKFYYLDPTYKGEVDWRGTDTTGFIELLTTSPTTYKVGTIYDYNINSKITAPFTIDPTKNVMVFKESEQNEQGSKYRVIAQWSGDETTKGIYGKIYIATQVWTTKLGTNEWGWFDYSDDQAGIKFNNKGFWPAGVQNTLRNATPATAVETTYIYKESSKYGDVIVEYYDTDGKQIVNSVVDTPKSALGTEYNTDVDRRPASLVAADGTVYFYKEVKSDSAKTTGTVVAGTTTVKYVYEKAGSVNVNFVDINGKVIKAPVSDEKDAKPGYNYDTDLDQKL
As to the kind of experiment: BLI.

B1: hisMRP-N (a.a. 48-721, the N-terminus of muramidase-released protein) (domain or fragment)
chain: DETVASSEPTIASSVAPASTEAVAEEAEKTNAENTSAVATTSTEVEKAKAVLEQVTSESPLLAGLGQKELAKTEDATLAKAIEDAQTKLAAAKAILADSEATVEQVEAQVAAVKVANEALGNELQKYTVDGLLTAALDTVAPDTTASTLKVGDGEGTLLDSTTTATPSMAEPNGAAIAPHTLRTQDGIKATSEPNWYTFESYDLYSYNKNMASSTYKGAEVDAYIRYSLDNDSSTTAVLAELVSRTTGDVLEKYTIEPGESVTFSHPTKVNANNSNITVTYDTSLASANTPGALKFSANDDVYSTIIVPAYQINTTRYVTESGKVLATYGLQTIAGQVVTPSSVRVFTGYDYVATTTKAVQGPYPKGTVYLAGTVQKDTVQYKVIREIVENDQAVLKFYYLDPTYKGEVDWRGTDTTGFIELLTTSPTTYKVGTIYDYNINSKITAPFTIDPTKNVMVFKESEQNEQGSKYRVIAQWSGDETTKGIYGKIYIATQVWTTKLGTNEWGWFDYSDDQAGIKFNNKGFWPAGVQNTLRNATPATAVETTYIYKESSKYGDVIVEYYDTDGKQIVNSVVDTPKSALGTEYNTDVDRRPASLVAADGTVYFYKEVKSDSAKTTGTVVAGTTTVKYVYEKAGSVNVNFVDINGKVIKAPVSDEKDAKPGYNYDTDLDQKL
modifications: biotin (in the far-Western and on the BLI biosensors)
notes: Muramidase-released protein (MRP) of Streptococcus suis serotype 2 strain 05ZYH33, gene SSU05_0753, residues 48-721; also called hisMRP-N_(48-721); source: cloned into pET-28a, expressed, purified by Ni-chelating chromatography
As for B1, in assay [1], the Kd worked out at 340 nM.

B2: human fibrinogen (complex)
chain 1: ADSGEGDFLAEGGGVRGPRVVERHQSACKDSDWPFCSDEDWNYKCPSGCRMKGLIDEVNQDFTNRINKLKNSLFEYQKNNKDSHSLTTNIMEILRGDFSSANNRDNTYNRVSEDLRSRIEVLKRKVIEKVQHIQLLQKNVRAQLVDMKRLEVDIDIKIRSCRGSCSRALAREVDLKDYEDQQKQLEQVIAKDLLPSRDRQHLPLIKMKPVPDLVPGNFKSQLQKVPPEWKALTDMPQMRMELERPGGNEITRGGSTSYGTGSETESPRNPSSAGSWNSGSSGPGSTGNRNPGSSGTGGTATWKPGSSGPGSTGSWNSGSSGTGSTGNQNPGSPRPGSTGTWNPGSSERGSAGHWTSESSVSGSTGQWHSESGSFRPDSPGSGNARPNNPDWGTFEEVSGNVSPGTRREYHTEKLVTSKGDKELRTGKEKVTSGSTTTTRRSCSKTVTKTVIGPDGHKEVTKEVVTSEDGSDCPEAMDLGTLSGIGTLDGFRHRHPDEAAFFDTASTGKTFPGFFSPMLGEFVSETESRGSESGIFTNTKESSSHHPGIAEFPSRGKSSSYSKQFTSSTSYNRGDSTFESKSYKMADEAGSEADHEGTHSTKRGHAKSRPVRGIHTSPLGKPSLSP
chain 2: QGVNDNEEGFFSARGHRPLDKKREEAPSLRPAPPPISGGGYRARPAKAAATQKKVERKAPDAGGCLHADPDLGVLCPTGCQLQEALLQQERPIRNSVDELNNNVEAVSQTSSSSFQYMYLLKDLWQKRQKQVKDNENVVNEYSSELEKHQLYIDETVNSNIPTNLRVLRSILENLRSKIQKLESDVSAQMEYCRTPCTVSCNIPVVSGKECEEIIRKGGETSEMYLIQPDSSVKPYRVYCDMNTENGGWTVIQNRQDGSVDFGRKWDPYKQGFGNVATNTDGKNYCGLPGEYWLGNDKISQLTRMGPTELLIEMEDWKGDKVKAHYGGFTVQNEANKYQISVNKYRGTAGNALMDGASQLMGENRTMTIHNGMFFSTYDRDNDGWLTSDPRKQCSKEDGGGWWYNRCHAANPNGRYYWGGQYTWDMAKHGTDDGVVWMNWKGSWYSMRKMSMKIRPFFPQQ
chain 3: YVATRDNCCILDERFGSYCPTTCGIADFLSTYQTKVDKDLQSLEDILHQVENKTSEVKQLIKAIQLTYNPDESSKPNMIDAATLKSRKMLEEIMKYEASILTHDSSIRYLQEIYNSNNQKIVNLKEKVAQLEAQCQEPCKDTVQIHDITGKDCQDIANKGAKQSGLYFIKPLKANQQFLVYCEIDGSGNGWTVFQKRLDGSVDFKKNWIQYKEGFGHLSPTGTTEFWLGNEKIHLISTQSAIPYALRVELEDWNGRTSTADYAMFKVGPEADKYRLTYAYFAGGDAGDAFDGFDFGDDPSDKFFTSHNGMQFSTWDNDNDKFEGNCAEQDGSGWWMNKCHAGHLNGVYYQGGTYSKASTPNGYDNGIIWATWKTRWYSMKKTTMKIIPFNRLTIGEGQQHHLGGAKQAGDV
modifications: biotin on hFg (which chain is not told) in the ELISA with immobilised MRP
With B2, the koff in assay [2] amounted to 0.0989 s⁻¹.
